# Results as given in US20260235581A1, “METHOD FOR THE SELECTION OF AN ECOBIOLOGICAL COMPOUND CAPABLE OF INCREASING THE SKIN TOLERANCE THRESHOLD” (NAOS INSTITUTE OF LIFE SCIENCE, priority 2023, published 2026).
# B1: EGF: epidermal growth factor protein, AF-100-15, Peprotech (protein, UniProt P01133 23-1207, looked up)
# Pro-epidermal growth factor: PQHWSCPEGTLAGNGNSTCVGPAPFLIFSHGNSIFRIDTEGTNYEQLVVDAGVSVIMDFHYNEKRIYWVDLERQLLQRVFLNGSRQERVCNIEKNVSGMAINWINEEVIWSNQQEGIITVTDMKGNNSHILLSALKYPANVAVDPVERFIFWSSEVAGSLYRADLDGVGVKALLETSEKITAVSLDVLDKRLFWIQYNREGSNSLICSCDYDGGSVHISKHPTQHNLFAMSLFGDRIFYSTWKMKTIWIANKHTGKDMVRINLHSSFVPLGELKVVHPLAQPKAEDDTWEPEQKLCKLRKGNCSSTVCGQDLQSHLCMCAEGYALSRDRKYCEDVNECAFWNHGCTLGCKNTPGSYYCTCPVGFVLLPDGKRCHQLVSCPRNVSECSHDCVLTSEGPLCFCPEGSVLERDGKTCSGCSSPDNGGCSQLCVPLSPVSWECDCFPGYDLQLDEKSCAASGPQPFLLFANSQDIRHMHFDGTDYGTLLSQQMGMVYALDHDPVENKIYFAHTALKWIERANMDGSQRERLIEEGVDVPEGLAVDWIGRRFYWTDRGKSLIGRSDLNGKRSKIITKENISQPRGIAVHPMAKRLFWTDTGINPRIESSSLQGLGRLVIASSDLIWPSGITIDFLTDKLYWCDAKQSVIEMANLDGSKRRRLTQNDVGHPFAVAVFEDYVWFSDWAMPSVMRVNKRTGKDRVRLQGSMLKPSSLVVVHPLAKPGADPCLYQNGGCEHICKKRLGTAWCSCREGFMKASDGKTCLALDGHQLLAGGEVDLKNQVTPLDILSKTRVSEDNITESQHMLVAEIMVSDQDDCAPVGCSMYARCISEGEDATCQCLKGFAGDGKLCSDIDECEMGVPVCPPASSKCINTEGGYVCRCSEGYQGDGIHCLDIDECQLGEHSCGENASCTNTEGGYTCMCAGRLSEPGLICPDSTPPPHLREDDHHYSVRNSDSECPLSHDGYCLHDGVCMYIEALDKYACNCVVGYIGERCQYRDLKWWELRHAGHGQQQKVIVVAVCVVVLVMLLLLSLWGAHYYRTQKLLSKNPKNPYEESSRDVRSRRPADTEDGMSSCPQPWFVVIKEHQDLKNGGQPVAGEDGQAADGSMQPTSWRQEPQLCGMGTEQGCWIPVSSDKGSCPQVMERSFHMPSYGTQTLEGGVEKPHSLLSANPLWQQRALDPPHQMELTQ
# modifications: Pro-epidermal growth factor
# notes: epidermal growth factor protein, AF-100-15, Peprotech
# System: TAFA4
# Experiment: TAFA4 synthesis in normal human keratinocyte culture supernatant, dot blot
# Type: cell-based
# Settings: 72 hours of incubation, EGF 30 ng/ml, versus KGM medium control set to 100%, statistically significant
# Procedure: Normal human keratinocytes (NHK) have been used in this study. They come from Promocell (Germany). The cells are seeded at 100,000 cells/well in the 24-well plates in KGM. After 24 hours, the cells are incubated with the compound shown in the table below in KBM+P/S medium at 37° C., 5% CO2.
# After 72 hours of incubation, the supernatants and protein extracts (obtained from the cell layer) were recovered and stored at −80° C.
# After 72 hours of incubation at 37° C., 5% CO2, the supernatants and protein extracts (obtained from the cell layer) are recovered and stored at −80° C.
# Before assaying the TAFA4 protein, an evaluation of the toxicity of the compounds is performed using the MTT test. Only the concentrations making it possible to obtain a viability greater than 80% are selected to be quantified by ELISA and dot blot.
# The results are expressed as a percentage of TAFA4 expression by standardising the control to 100% (KGM medium control). The data have been obtained from an independent experiment carried out in triplicate.
molecule,measurement,value
B1,effect on the synthesis of TAFA4 (modulation of TAFA4 in the NHK supernatant),inhibits the synthesis of TAFA4
